Measured values from patent US20190233512A1 (SUTRO BIOPHARMA, published 2019).
Residue numbers refer to the chain shown, from its start.

B1: SRP1848-F07 (antibody, V domains shown)
VH: EVQLVESGGGLVQPGGSLRLSCAASGFNISNHSIHWVRQAPGKGLEWVGEIYPNDGITDYADSVKGRFTISADTSKNTAYLQMNSLSAEDTAVYYCARGSWDWRSGYSYYLDYWGQGTLVTVSS
VL: not shown
notes: VH/VL only; Fc-bearing IgG format with trastuzumab LC, HIS/FLAG-tagged, cell-free expressed; constant regions not tied; also called Antibody 42
B2: SRP1848-F09 (antibody, V domains shown)
VH: B1 VH with S33Y, E50G, Y52S, N54L, I57Y, S87R, S100A, D102S, S108G, L111I
VL: not shown
notes: VH/VL only; Fc-bearing IgG format with trastuzumab LC, HIS/FLAG-tagged, cell-free expressed; constant regions not tied; also called Antibody 44
B3: SRP1848-F10 (antibody, V domains shown)
VH: B1 VH with H32N, E50S, Y52F, I57Y, S87R, D102F, S108G
VL: not shown
notes: VH/VL only; Fc-bearing IgG format with trastuzumab LC, HIS/FLAG-tagged, cell-free expressed; constant regions not tied; also called Antibody 45
B4: SRP1848-G03 (antibody, V domains shown)
VH: EVQLVESGGGLVQPGGSLRLSCAASGFNISTYYIHWVRQAPGKGLEWVGGITPSDGFTDYADSVKGRSTISADTSKNTAYLQMNSLRAEDTAVYYCARGSWSWPSGHGYFLDYWGQGTLVTVSS
VL: not shown
notes: VH/VL only; Fc-bearing IgG format with trastuzumab LC, HIS/FLAG-tagged, cell-free expressed; constant regions not tied; also called Antibody 48
B5: SRP1848-F01 (antibody, V domains shown)
VH: B1 VH with S30R, N31T, H32Y, E50S, Y52F, I57T, S87R, D102A, S105A
VL: not shown
notes: VH/VL only; Fc-bearing IgG format with trastuzumab LC, HIS/FLAG-tagged, cell-free expressed; constant regions not tied; also called Antibody 37
B6: SRP1848-E02 (antibody, V domains shown)
VH: B1 VH with S30G, N31K, H32Y, I57N, S87R, D102S, S108G
VL: not shown
notes: VH/VL only; Fc-bearing IgG format with trastuzumab LC, HIS/FLAG-tagged, cell-free expressed; constant regions not tied; also called Antibody 32
B7: SRP1848-F02 (antibody, V domains shown)
VH: EVQLVESGGGLVQPGGSLRLSCAASGFNIRTYSIHWVRQAPGKGLEWVGSIFPNDGTTDYADSVKGRLTISADTSKNTAYLQMNSLRAEDTAVYYCARGSWSWQAGYGYYLDYWGQGTLVTVSS
VL: not shown
notes: VH/VL only; Fc-bearing IgG format with trastuzumab LC, HIS/FLAG-tagged, cell-free expressed; constant regions not tied; also called Antibody 38
B8: SRP1848-D05 (antibody, V domains shown)
VH: B7 VH with R30S, T31I, Y32S, S33Y, S50G, F52S, N54I, T57Y, L68F, Q104R
VL: not shown
notes: VH/VL only; Fc-bearing IgG format with trastuzumab LC, HIS/FLAG-tagged, cell-free expressed; constant regions not tied; also called Antibody 27
B9: SRP1848-E07 (antibody, V domains shown)
VH: EVQLVESGGGLVQPGGSLRLSCAASGFNIRKSSIHWVRQAPGKGLEWVGEIFPYDGSTDYADNVKGRFTISADTSKNTAYLQMNSLRAEDTAVYYCARGAWSWRSGYGYYIDYWGQGTLVTVSS
VL: not shown
notes: VH/VL only; Fc-bearing IgG format with trastuzumab LC, HIS/FLAG-tagged, cell-free expressed; constant regions not tied; also called Antibody 36
B10: SRP1848-F11 (antibody, V domains shown)
VH: EVQLVESGGGLVQPGGSLRLSCAASGFNISNNYIHWVRQAPGKGLEWVGGITPIDGNTDYADSVKGRFTISADTSMNTAYLQMNSLRAEDTAVYYCARGSWYWRAGYGYYLDYWGQGALVTVSS
VL: not shown
notes: VH/VL only; Fc-bearing IgG format with trastuzumab LC, HIS/FLAG-tagged, cell-free expressed; constant regions not tied; also called Antibody 46
B11: SRP1848-A02 (antibody, V domains shown)
VH: EVQLVESGGGLVQPGGSLRLSCAASGFNISGFRIHWVRQAPGKGLEWVAGIYPESGATYYADSVKGRFTISADTSKNTAYLQMNSLRAEDTAVYYCARHLYVWDWVLDHVLDYWGQGTLVTVSS
VL: not shown
notes: VH/VL only; Fc-bearing IgG format with trastuzumab LC, HIS/FLAG-tagged, cell-free expressed; constant regions not tied; also called Antibody 2
B12: SRP1848-D03 (antibody, V domains shown)
VH: EVQLVESGGGVVQPGGSLRLSCAASGFNIRYFSIHWVRQAPGKGLEWVGDIFPNDGSTDYADSVKGRFTISADTSKNTAYLQMNSLRAEETAVYYCARGHWSWPSGYWYYLDYWGQGTLVTVSS
VL: not shown
notes: VH/VL only; Fc-bearing IgG format with trastuzumab LC, HIS/FLAG-tagged, cell-free expressed; constant regions not tied; also called Antibody 25
B13: SRP2060-E10 (antibody, V domains shown)
VH: EVQLLESGGGLVQPGGSLRLSCAFSGFSLSTFGMGVGWVRQAPGKGLEWVSHIWWDDDKYYHPALKGRFTISKDNSKNTVYLQMNSLRAEDTAVYYCGRNHFPHYYGSSHWYFNVWGQGTTVTVSS
VL: EIVMTQSPATLSLSPGERATLSCKASQDINSYLSWYQQKPGQAPRLLIYRANRLVDGIPARFSGSGSGTDYTLTISSLEPEDFAVYYCLQYDEFPYTFGGGTKVEIK
B14: SRP2060-E05 (antibody, V domains shown)
VH: B13 VH with I71V
VL: B13 VL

These binders were tested against T1, Murine folate receptor alpha (mouse, UniProt P35846 25-232) (assay: FACS, CHO-mFOLR1 cells).
T1 construct: Stably expressed on CHO cells (CHO-mFOLR1); also called mouse FOLR1; CHO-mFOLR1
T1 sequence (P35846 25-232 limits assumed): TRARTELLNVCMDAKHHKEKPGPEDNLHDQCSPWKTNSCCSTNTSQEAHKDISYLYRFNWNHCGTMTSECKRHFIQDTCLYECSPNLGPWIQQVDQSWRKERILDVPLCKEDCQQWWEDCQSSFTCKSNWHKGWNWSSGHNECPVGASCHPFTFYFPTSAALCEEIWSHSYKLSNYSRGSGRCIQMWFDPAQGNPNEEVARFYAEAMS

| Bmax [MFI] | Binder |
| --- | --- |
| 1390 | B1 |
| 1670 | B2 |
| 1740 | B3 |
| 2220 | B4 |
| 3750 | B5 |
| 1470 | B6 |
| 2740 | B7 |
| 1360 | B8 |
| 11800 | B9 |
| 1760 | B10 |
| 18600 | B11 |
| 3170 | B12 |

Each binder was assayed against FOLR1 on FOLR1-positive Igrov1 cells (UniProt P15328 25-234, limits assumed) (assay: cell-based or functional assay).
Sequence of FOLR1 on FOLR1-positive Igrov1 cells (P15328 25-234 limits assumed): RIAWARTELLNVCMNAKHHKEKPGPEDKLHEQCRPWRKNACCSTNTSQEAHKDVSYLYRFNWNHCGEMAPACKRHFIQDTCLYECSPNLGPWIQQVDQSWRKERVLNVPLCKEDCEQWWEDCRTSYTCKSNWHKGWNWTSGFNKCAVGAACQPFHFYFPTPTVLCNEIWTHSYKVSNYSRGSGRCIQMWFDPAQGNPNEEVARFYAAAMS

| Binder | Igrov 2° Antibody Cell Killing, Nb-SC239: EC50 [nM] | Igrov 2° Antibody Cell Killing, Nb-SC239: span (%) |
| --- | --- | --- |
| B13 | 0.061 | 68 |
| B14 | 0.22 | 71 |

These binders were tested against T2, Human folate receptor alpha (hFOLR1) (human, UniProt P15328 25-234) (assay: FACS, CHO-hFOLR1 cells).
T2 construct: Stably expressed on CHO cells (CHO-hFOLR1) for flow cytometry; endogenous on FOLR1-positive KB and Igrov1 cells in the killing assay; also called human FOLR1; FolRα
T2 sequence (P15328 25-234 limits assumed): as above
Experimental: CHO cells were transfected to stably express human (CHO-hFOLR1), cynomolgus (CHO-cFOLR1), or mouse (CHO-mFOLR1) target molecule FOLR1 on the cell surface. Parental CHO cells were used as a negative control to determine background binding levels. Parental CHO and stably transfected CHO-hFOLR1, CHO-cFOLR1, and CHO-mFOLR1 cells were cultured in Ham's F-12: high glucose DMEM (50:50) (Corning, Cellgro-Mediatech) supplemented with 10% heat-inactivated fetal bovine serum (Corning, Cellgro-Mediatech), 1% Penicillin/Streptomycin (Corning, Cellgro-Mediatech) and 2 mmol/L-glutamax (Life Technology).
A mixture of fluoresecent-labeled parental CHO cells and unlabeled CHO-hFOLRlcells were prepared as follows. Parental CHO cells were washed twice in PBS and incubated in PBS containing with 1 nM CellTrace™ Oregon Green488® (Life Technologies) at 37° C. for 30 minutes. Labeled parental CHO cells were then washed 2× with Ham's F-12 media and 2× with FACS buffer (PBS with 1% bovine serum albumin). Unlabeled CHO-hFOLR1 cells were similarly washed and prepared. Labeled parental CHO and unlabeled CHO-hFOLR1 cells were combined at 1:1 ratio and seeded at 50 μL per well (200,000 cells per well) in 96 well polypropylene plates. Cells were mixed with 50 μL of test antibodies (i.e., anti-FOLR1 variants) serially diluted in FACS buffer and incubated on ice for 60 mins. Cells were washed with FACS buffer and incubated on ice for 60 mins with 100 μL FACS buffer containing 2.5 μg/mL R-Phycoerythrin-conjugated goat anti-Human IgG (Jackson ImmunoResearch Laboratories, West Grove, Pa.). Cells were washed twice with FACS buffer, fixed in 2% paraformaldehyde in PBS (Santa Cruz Biotechnology; Dallas, Tex.) for 10 mins on ice in the dark, and analyzed using the BD LSR II Flow Cytometer (BD Biosciences; San Jose, Calif.). Data were analyzed using FlowJo® software (FlowJo, LLC; Ashland, Oreg.) to determine mean fluorescence intensities. Binding constants were calculated using the statistical software, GraphPad Prism (GraphPad Software; La Jolla, Calif.) using the nonlinear regression equation, one site-specific binding with Hill slope. Secondary antibody alone was used as a control, in addition to measuring non-specific antibody binding to CHO parental cells.

| Bmax [MFI] | Binder |
| --- | --- |
| 27400 | B1 |
| 23800 | B2 |
| 25600 | B3 |
| 26400 | B4 |
| 25200 | B5 |
| 23800 | B6 |
| 25700 | B7 |
| 26700 | B8 |
| 27300 | B9 |
| 26800 | B10 |
| 24700 | B11 |
| 26000 | B12 |

Each binder was assayed against T3, Cynomolgus folate receptor alpha (cynomolgus monkey, UniProt P15328 25-234 (human entry)) (assay: FACS, CHO-cFOLR1 cells).
T3 construct: Stably expressed on CHO cells (CHO-cFOLR1); also called cynomolgus FOLR1; CHO-cFOLR1
T3 sequence (P15328 other isoform, or with tags, fused parts or gaps limits assumed): as the sequence (P15328 25-234 limits assumed) above, with I2T, W4R, R37K, Q117R, A146P, H171Y counted along it

| Bmax [MFI] | Binder |
| --- | --- |
| 18700 | B1 |
| 24200 | B2 |
| 20700 | B3 |
| 19200 | B4 |
| 21500 | B5 |
| 18700 | B6 |
| 14900 | B7 |
| 22200 | B8 |
| 20400 | B9 |
| 21800 | B10 |
| 18500 | B11 |
| 14100 | B12 |
